Our source for the Kd values is patent publication US20260167710A1.

In test [1] the target is cFcgRIIIa (cynomolgus monkey). Nature of the test: SPR (ProteOn XPR36), anti-poly-histidine IgG surface, antibody as analyte, equilibrium fit, 25 C.
The target in test [2] is cFcgRIIa (cynomolgus monkey). The test is described as above.
Test [3] has as its target cFcgRIIb (cynomolgus monkey). The description is as above.
The target of a further test is hFcgRI (human) (UniProt P12314). Described as above.
Chain of hFcgRI (human) (P12314 16-292): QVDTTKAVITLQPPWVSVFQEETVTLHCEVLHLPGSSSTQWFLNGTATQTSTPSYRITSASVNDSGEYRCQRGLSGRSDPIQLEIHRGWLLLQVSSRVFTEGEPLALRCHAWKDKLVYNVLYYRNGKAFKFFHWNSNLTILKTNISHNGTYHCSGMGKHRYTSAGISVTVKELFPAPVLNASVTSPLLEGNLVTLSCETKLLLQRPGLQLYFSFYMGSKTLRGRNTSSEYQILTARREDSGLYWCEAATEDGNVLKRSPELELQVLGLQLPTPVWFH
The next test has as its target hFcgRIIIa (F158) (human) (UniProt P08637). The test is described as above.
A further test has as its target hFcgRIIIa (V158) (human) (UniProt P08637). The test is described as above.
The target of a further test is hFcgRIIa (H131) (human) (UniProt P12318). Described as above.
Chain of hFcgRIIa (H131) (human) (P12318 34-217): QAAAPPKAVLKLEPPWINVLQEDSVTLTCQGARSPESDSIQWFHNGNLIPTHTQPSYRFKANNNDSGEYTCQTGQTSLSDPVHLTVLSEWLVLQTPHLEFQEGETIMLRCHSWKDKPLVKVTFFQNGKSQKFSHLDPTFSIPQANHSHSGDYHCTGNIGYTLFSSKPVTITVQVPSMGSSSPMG
The next test has as its target hFcgRIIa (R131) (human) (UniProt P12318). The test is described as above.
Test [4] has as its target human complement component C1q (human) (UniProt P02745). Nature of the test: SPR (ProteOn XPR36), antibody immobilised by amine coupling, C1q as analyte, equilibrium fit, 25 C.
The target in test [5] is cynomolgus recombinant neonatal receptor (FcRn) (cynomolgus monkey) (UniProt Q8SPV9). The test can be described thus: SPR (ProteOn XPR36), antibody captured by protein L, FcRn as analyte, equilibrium fit, pH 6.0, 25 C.
Test [6] deals with human recombinant neonatal receptor (FcRn) (human) (UniProt P55899). Described as above.
Chain of human recombinant neonatal receptor (FcRn) (human) (P55899 24-297 limits assumed, chain 1 of 2): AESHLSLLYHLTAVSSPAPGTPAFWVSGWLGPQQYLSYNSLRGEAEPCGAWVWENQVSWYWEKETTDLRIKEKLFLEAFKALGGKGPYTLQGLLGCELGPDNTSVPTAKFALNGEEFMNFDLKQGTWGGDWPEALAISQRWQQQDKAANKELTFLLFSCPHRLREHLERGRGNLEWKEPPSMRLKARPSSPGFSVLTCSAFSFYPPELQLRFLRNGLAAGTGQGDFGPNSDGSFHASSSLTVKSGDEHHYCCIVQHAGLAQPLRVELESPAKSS
Chain of human recombinant neonatal receptor (FcRn) (human) (P61769 21-119 limits assumed, chain 2 of 2, further chain): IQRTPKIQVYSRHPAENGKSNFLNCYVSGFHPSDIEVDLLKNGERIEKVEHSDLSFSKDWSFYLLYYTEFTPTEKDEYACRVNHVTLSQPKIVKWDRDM
The target of test [7] is cynomolgus recombinant neonatal receptor (FcRn) (cynomolgus monkey) (UniProt Q8SPV9). The test can be described thus: SPR (ProteOn XPR36), antibody captured by protein L, FcRn as analyte, equilibrium fit, pH 7.4, 25 C.
Test [8] deals with human recombinant neonatal receptor (FcRn) (human) (UniProt P55899). Described as above.

Chain of hFcgRIIa (R131) (human) (P12318 34-217 H167R): as the sequence (P12318 34-217) above, with H134R counted along it
Chain of hFcgRIIIa (F158) (human) (P08637 17-208): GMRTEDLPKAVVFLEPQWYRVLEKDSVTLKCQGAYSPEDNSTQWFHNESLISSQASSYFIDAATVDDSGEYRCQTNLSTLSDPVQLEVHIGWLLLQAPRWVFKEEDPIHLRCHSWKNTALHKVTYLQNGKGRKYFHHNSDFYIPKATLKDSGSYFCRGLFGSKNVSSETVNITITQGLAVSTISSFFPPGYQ
Chain of hFcgRIIIa (V158) (human) (P08637 17-208 F176V): as the sequence (P08637 17-208) above, with F160V counted along it
Chain of cFcgRIIIa (cynomolgus monkey) (Q8SPW2 17-208): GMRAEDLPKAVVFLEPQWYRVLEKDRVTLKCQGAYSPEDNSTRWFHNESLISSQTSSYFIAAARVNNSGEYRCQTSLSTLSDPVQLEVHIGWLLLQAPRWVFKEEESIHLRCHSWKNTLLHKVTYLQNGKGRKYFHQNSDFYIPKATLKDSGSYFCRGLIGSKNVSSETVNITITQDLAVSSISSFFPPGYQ
Chain of human complement component C1q (human) (P02745 23-245 limits assumed, chain 1 of 3): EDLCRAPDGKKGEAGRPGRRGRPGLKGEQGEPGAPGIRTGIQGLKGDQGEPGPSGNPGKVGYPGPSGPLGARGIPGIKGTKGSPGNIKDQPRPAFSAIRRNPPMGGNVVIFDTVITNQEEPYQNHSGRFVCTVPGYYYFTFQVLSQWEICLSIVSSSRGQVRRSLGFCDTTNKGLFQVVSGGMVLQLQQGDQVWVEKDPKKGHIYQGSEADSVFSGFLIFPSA
Chain of human complement component C1q (human) (P02746 28-253 limits assumed, chain 2 of 3, further chain): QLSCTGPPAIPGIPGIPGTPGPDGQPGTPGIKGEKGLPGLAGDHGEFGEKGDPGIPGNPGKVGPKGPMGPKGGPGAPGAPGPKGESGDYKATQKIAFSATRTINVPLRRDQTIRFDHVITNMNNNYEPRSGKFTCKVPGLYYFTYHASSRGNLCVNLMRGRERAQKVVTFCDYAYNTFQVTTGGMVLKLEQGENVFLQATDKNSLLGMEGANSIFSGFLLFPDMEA
Chain of human complement component C1q (human) (P02747 29-245 limits assumed, chain 3 of 3, further chain): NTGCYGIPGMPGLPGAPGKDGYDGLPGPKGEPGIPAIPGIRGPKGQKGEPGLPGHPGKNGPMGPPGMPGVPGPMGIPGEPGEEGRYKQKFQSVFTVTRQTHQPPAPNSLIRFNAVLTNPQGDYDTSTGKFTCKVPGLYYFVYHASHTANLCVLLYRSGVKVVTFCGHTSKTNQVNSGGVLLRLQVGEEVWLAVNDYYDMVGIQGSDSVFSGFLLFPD

Consider “Anti-RSV hIgG1 wildtype control (antibody)”, for which the Kd in test [1] is 141 nM; in [2] it was 2210 nM; in test [3], 1450 nM; with hFcgRI (human) it was 28.3 nM; in the test with hFcgRIIIa (F158) (human) it was 735 nM; with hFcgRIIIa (V158) (human), 232 nM. The Kd amounted to 884 nM with hFcgRIIa (H131) (human); 528 nM with hFcgRIIa (R131) (human); 680 nM in test [4]; 146 nM in test [5]; 129 nM in test [6].

With Human IgG1 YTE control (antibody), the Kd in test [5] worked out at 39.3 nM; in test [6], 30.4 nM; in [7], 2760 nM; in test [8], 4330 nM.
